From article PMC11077067, “Protein G-quadruplex interactions and their effects on phase transitions and protein aggregation”
Residue numbers refer to the chain shown, from its start.

Tests used:
[1] = biological target: T1, Znf706 N-terminal peptide (Homo sapiens, UniProt Q9Y5V0 1-35); test: fluorescence polarization; 100 mM KCl; range over three G4s; FP/anisotropy: 20 mM NaPi, 100 mM KCl, 0.05% NaN3, pH 7.4, 25 C (LiCl variant: 20 mM Tris-HCl, 100 mM LiCl, pH 7.4; NaCl variant: 20 mM NaPi, 100 mM NaCl, pH 7.4); NMR: 20 mM NaPi, 100 mM KCl, 7.5% D2O, pH 7.4, 4-50 C; conditions: label: 5' 6-FAM
T1 chain: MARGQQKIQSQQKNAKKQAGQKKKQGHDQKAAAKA

Znf706 [2] = biological target: T2, Znf706 (Homo sapiens, UniProt Q9Y5V0 1-76); test: fluorescence polarization; 100 mM KCl; range over all G4s; less strong; exact value in figure; FP/anisotropy: 20 mM NaPi, 100 mM KCl, 0.05% NaN3, pH 7.4, 25 C (LiCl variant: 20 mM Tris-HCl, 100 mM LiCl, pH 7.4; NaCl variant: 20 mM NaPi, 100 mM NaCl, pH 7.4); NMR: 20 mM NaPi, 100 mM KCl, 7.5% D2O, pH 7.4, 4-50 C; conditions: protein: recombinant; tags: none (His6-SUMO cleaved); chain copies: 2; label: 5' 6-FAM; hybrid G4
T2 sequence: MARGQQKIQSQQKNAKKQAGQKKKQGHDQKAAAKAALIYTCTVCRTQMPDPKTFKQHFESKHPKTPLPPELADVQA

Znf706 [3] = biological target: T2, Znf706; test: NMR; competitive titration with Bcl2SH G4; FP/anisotropy: 20 mM NaPi, 100 mM KCl, 0.05% NaN3, pH 7.4, 25 C (LiCl variant: 20 mM Tris-HCl, 100 mM LiCl, pH 7.4; NaCl variant: 20 mM NaPi, 100 mM NaCl, pH 7.4); NMR: 20 mM NaPi, 100 mM KCl, 7.5% D2O, pH 7.4, 4-50 C; conditions: protein: recombinant; tags: none (His6-SUMO cleaved); chain copies: 2; blunt
Znf706 [4] = biological target: T2, Znf706; test: NMR; 37 C; FP/anisotropy: 20 mM NaPi, 100 mM KCl, 0.05% NaN3, pH 7.4, 25 C (LiCl variant: 20 mM Tris-HCl, 100 mM LiCl, pH 7.4; NaCl variant: 20 mM NaPi, 100 mM NaCl, pH 7.4); NMR: 20 mM NaPi, 100 mM KCl, 7.5% D2O, pH 7.4, 4-50 C; conditions: protein: recombinant; tags: none (His6-SUMO cleaved); chain copies: 2; hairpin
Znf706 [5] = biological target: T2, Znf706; test: fluorescence polarization; 100 mM KCl; range over all G4s; strong; exact value in figure; FP/anisotropy: 20 mM NaPi, 100 mM KCl, 0.05% NaN3, pH 7.4, 25 C (LiCl variant: 20 mM Tris-HCl, 100 mM LiCl, pH 7.4; NaCl variant: 20 mM NaPi, 100 mM NaCl, pH 7.4); NMR: 20 mM NaPi, 100 mM KCl, 7.5% D2O, pH 7.4, 4-50 C; conditions: protein: recombinant; tags: none (His6-SUMO cleaved); chain copies: 2; label: 5' 6-FAM; parallel G4
Znf706 [6] = biological target: T2, Znf706; test: MST; range over all G4s; strong; exact value in figure; FP/anisotropy: 20 mM NaPi, 100 mM KCl, 0.05% NaN3, pH 7.4, 25 C (LiCl variant: 20 mM Tris-HCl, 100 mM LiCl, pH 7.4; NaCl variant: 20 mM NaPi, 100 mM NaCl, pH 7.4); NMR: 20 mM NaPi, 100 mM KCl, 7.5% D2O, pH 7.4, 4-50 C; conditions: protein: recombinant; tags: none (His6-SUMO cleaved); chain copies: 2; label: 5' 6-FAM; parallel G4
Znf706 A2C-AF488 = biological target: T3, Znf706 A2C-AF488 (Homo sapiens, UniProt Q9Y5V0 1-76, A2C); test: fluorescence anisotropy; FP/anisotropy: 20 mM NaPi, 100 mM KCl, 0.05% NaN3, pH 7.4, 25 C (LiCl variant: 20 mM Tris-HCl, 100 mM LiCl, pH 7.4; NaCl variant: 20 mM NaPi, 100 mM NaCl, pH 7.4); NMR: 20 mM NaPi, 100 mM KCl, 7.5% D2O, pH 7.4, 4-50 C; conditions: protein: recombinant, tags: none (His6-SUMO cleaved), AF488 label
T3 sequence: T2 sequence with A2C

Znf706 [7] = biological target: T2, Znf706; test: MST; range over all G4s; less strong; exact value in figure; FP/anisotropy: 20 mM NaPi, 100 mM KCl, 0.05% NaN3, pH 7.4, 25 C (LiCl variant: 20 mM Tris-HCl, 100 mM LiCl, pH 7.4; NaCl variant: 20 mM NaPi, 100 mM NaCl, pH 7.4); NMR: 20 mM NaPi, 100 mM KCl, 7.5% D2O, pH 7.4, 4-50 C; conditions: protein: recombinant; tags: none (His6-SUMO cleaved); chain copies: 2; label: 5' 6-FAM; hybrid G4
Znf706 A2C-MTSL = biological target: T4, Znf706 A2C-MTSL (Homo sapiens, UniProt Q9Y5V0 1-76, A2C); test: PRE NMR; 2:1 protein:DNA, 100 mM KCl, 4 C; FP/anisotropy: 20 mM NaPi, 100 mM KCl, 0.05% NaN3, pH 7.4, 25 C (LiCl variant: 20 mM Tris-HCl, 100 mM LiCl, pH 7.4; NaCl variant: 20 mM NaPi, 100 mM NaCl, pH 7.4); NMR: 20 mM NaPi, 100 mM KCl, 7.5% D2O, pH 7.4, 4-50 C; conditions: protein: recombinant; tags: none (His6-SUMO cleaved); MTSL spin label; parallel G4
T4 sequence: T2 sequence with A2C

Znf706 [8] = biological target: T2, Znf706; test: NMR; 100 mM KCl; FP/anisotropy: 20 mM NaPi, 100 mM KCl, 0.05% NaN3, pH 7.4, 25 C (LiCl variant: 20 mM Tris-HCl, 100 mM LiCl, pH 7.4; NaCl variant: 20 mM NaPi, 100 mM NaCl, pH 7.4); NMR: 20 mM NaPi, 100 mM KCl, 7.5% D2O, pH 7.4, 4-50 C; conditions: protein: recombinant; tags: none (His6-SUMO cleaved); chain copies: 2; hairpin
Znf706 [9] = biological target: T2, Znf706; test: MST; range over all G4s; weakest; exact value in figure; FP/anisotropy: 20 mM NaPi, 100 mM KCl, 0.05% NaN3, pH 7.4, 25 C (LiCl variant: 20 mM Tris-HCl, 100 mM LiCl, pH 7.4; NaCl variant: 20 mM NaPi, 100 mM NaCl, pH 7.4); NMR: 20 mM NaPi, 100 mM KCl, 7.5% D2O, pH 7.4, 4-50 C; conditions: protein: recombinant; tags: none (His6-SUMO cleaved); chain copies: 2; label: 5' 6-FAM

B1: Bcl2WT, 6-FAM (structured_DNA)
DNA: GGGCGCGGGAGGAAGGGGGCGGG
[1]; hybrid G4
  Kd: ~17.2 µM
Znf706 [2]
  Kd: ~4.47 µM

B2: Bcl2SH duplex (dsDNA)
DNA 1: AGGAGGGGGGCGGGA
DNA 2: TCCCGCCCCCCTCCT
Znf706 [3]
  binding result: no binding

B3: GGGG hairpin (structured_DNA)
DNA: GGTTGGGGTTGTTTTCAACCCCAACC
Znf706 [4]
  binding result: no binding

B4: cMyc (Pu19_A2A11), 6-FAM (structured_DNA)
DNA: TAGGGAGGGTAGGGAGGGT
[1]; parallel G4
  Kd: ~17.2 µM
Znf706 [5]
  Kd: ~4.47 µM

B5: TERRA, 6-FAM (structured_RNA)
RNA: UAGGGUUAGGGUUAGGGUUAGGG
Znf706 [6]
  Kd: ~4.47 µM

B6: G4C2 4-repeat (structured_DNA)
DNA: GGGGCCGGGGCCGGGGCCGGGGCC
Znf706 A2C-AF488
  binding result: binds

B7: hTel, 6-FAM (structured_DNA)
DNA: TTGGGTTAGGGTTAGGGTTAGGGA
Znf706 [7]
  Kd: ~4.47 µM

B8: cMyc (Pu19_A2A11) (structured_DNA)
DNA: TAGGGAGGGTAGGGAGGGT
Znf706 A2C-MTSL
  binding result: binds
Znf706 A2C-AF488; parallel G4
  binding result: binds

B9: GGA hairpin (structured_DNA)
DNA: GGAAGGAAGGTTTTCCTTCCTTCC
Znf706 [8]
  binding result: no binding

B10: Bcl2SH, 6-FAM (structured_DNA)
DNA: AGGAGGGGGGCGGGA
[1]; parallel G4
  Kd: ~17.2 µM
Znf706 [5]
  Kd: ~4.47 µM

B11: Kit*, 6-FAM (structured_DNA)
DNA: GGCGAGGAGGGGCGTGGCCGGC
Znf706 [9]
  Kd: ~4.47 µM
